# T1: Sla1-2, P32790
# T1 sequence (P32790 60-140, looked up): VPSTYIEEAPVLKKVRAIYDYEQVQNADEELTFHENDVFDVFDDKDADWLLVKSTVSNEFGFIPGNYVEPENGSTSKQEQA
# T2: Lsb1, P53281
# T2 sequence (P53281 45-122, looked up): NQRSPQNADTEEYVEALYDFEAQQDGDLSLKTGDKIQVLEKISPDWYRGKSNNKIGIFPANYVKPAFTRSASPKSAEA
# T3: Bzz1-2, P38822
# T3 sequence (P38822 568-633, looked up): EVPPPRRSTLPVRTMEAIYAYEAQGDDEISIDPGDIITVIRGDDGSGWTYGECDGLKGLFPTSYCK
# T4: Bbc1, P47068
# T4 sequence (P47068 1-78, looked up): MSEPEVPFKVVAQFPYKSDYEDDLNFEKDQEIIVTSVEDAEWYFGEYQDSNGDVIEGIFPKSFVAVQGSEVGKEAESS
# T5: Hof1, Q05080
# T5 sequence (Q05080 590-669, looked up): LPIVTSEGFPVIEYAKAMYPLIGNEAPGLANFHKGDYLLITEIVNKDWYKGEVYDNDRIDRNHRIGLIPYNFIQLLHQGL
# T6: Cyk3, Q07533
# T6 sequence (Q07533 1-83, looked up): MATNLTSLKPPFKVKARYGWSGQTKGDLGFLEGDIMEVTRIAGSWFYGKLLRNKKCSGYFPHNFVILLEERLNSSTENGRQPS
# T7: Fus1, P11710
# T7 sequence (P11710 432-512, looked up): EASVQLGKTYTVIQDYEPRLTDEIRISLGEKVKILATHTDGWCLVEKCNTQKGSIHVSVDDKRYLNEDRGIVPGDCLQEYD
# T8: Bzz1-1, P38822
# T8 sequence (P38822 478-572, looked up): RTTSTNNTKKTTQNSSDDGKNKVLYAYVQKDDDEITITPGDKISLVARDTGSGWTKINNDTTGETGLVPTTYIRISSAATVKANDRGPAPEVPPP
# T9: Boi2, P39969
# T9 sequence (P39969 32-116, looked up): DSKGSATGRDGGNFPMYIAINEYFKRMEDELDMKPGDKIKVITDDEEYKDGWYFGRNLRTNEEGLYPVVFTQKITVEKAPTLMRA
# T10: Boi1, P38041
# T10 sequence (P38041 1-86, looked up): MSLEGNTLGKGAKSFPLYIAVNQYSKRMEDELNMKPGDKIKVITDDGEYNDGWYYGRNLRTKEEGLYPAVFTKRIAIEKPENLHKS
# T11: Abp1, P15891
# T11 sequence (P15891 535-592, looked up): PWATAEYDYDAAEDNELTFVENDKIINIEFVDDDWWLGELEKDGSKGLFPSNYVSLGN
# T12: Pex13, P80667
# T12 sequence (P80667 295-386, looked up): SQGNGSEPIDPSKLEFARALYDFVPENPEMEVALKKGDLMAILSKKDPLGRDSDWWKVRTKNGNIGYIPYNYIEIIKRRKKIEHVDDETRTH
# T13: Lsb3, P43603
# T13 sequence (P43603 385-451, looked up): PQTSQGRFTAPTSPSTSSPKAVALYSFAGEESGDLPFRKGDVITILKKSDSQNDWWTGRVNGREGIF
# T14: Hse1, P38753
# T14 sequence (P38753 208-285, looked up): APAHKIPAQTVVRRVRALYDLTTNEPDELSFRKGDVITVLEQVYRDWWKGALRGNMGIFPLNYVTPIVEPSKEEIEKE
# T15: Lsb4, P32793
# T15 sequence (P32793 402-468, looked up): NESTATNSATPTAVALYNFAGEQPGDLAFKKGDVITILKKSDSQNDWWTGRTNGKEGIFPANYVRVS
# T16: Pin3, Q06449
# T16 sequence (Q06449 53-122, looked up): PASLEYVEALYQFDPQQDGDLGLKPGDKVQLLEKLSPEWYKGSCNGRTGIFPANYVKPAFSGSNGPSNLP
# T17: Myo5, Q04439
# T17 sequence (Q04439 1072-1160, looked up): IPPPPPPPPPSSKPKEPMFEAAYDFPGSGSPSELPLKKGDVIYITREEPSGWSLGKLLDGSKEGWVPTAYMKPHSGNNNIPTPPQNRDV
# T18: Nbp2, Q12163
# T18 sequence (Q12163 103-180, looked up): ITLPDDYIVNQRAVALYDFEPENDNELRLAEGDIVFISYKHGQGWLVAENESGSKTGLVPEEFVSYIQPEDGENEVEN
# T19: Sla1-3, P32790
# T19 sequence (P32790 344-424, looked up): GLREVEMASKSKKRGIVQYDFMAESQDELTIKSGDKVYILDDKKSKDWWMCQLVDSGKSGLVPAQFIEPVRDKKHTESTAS
# T20: Bud14, P27637
# T20 sequence (P27637 247-328, looked up): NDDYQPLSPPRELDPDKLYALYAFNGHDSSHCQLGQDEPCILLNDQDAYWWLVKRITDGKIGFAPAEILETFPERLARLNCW
# T21: Cdc25, P04821
# T21 sequence (P04821 50-136, looked up): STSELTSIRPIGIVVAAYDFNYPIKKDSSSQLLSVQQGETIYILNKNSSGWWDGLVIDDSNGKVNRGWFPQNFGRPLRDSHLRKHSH
# What was measured:
# Assay in all cases: SPOT array
# Sla1-2, P32790 = target: T1, Sla1-2, P32790; details: median of control spots 712
# Lsb1, P53281 = target: T2, Lsb1, P53281; details: median of control spots 388
# Bzz1-2, P38822 = target: T3, Bzz1-2, P38822; details: median of control spots 4538
# Bbc1, P47068 = target: T4, Bbc1, P47068; details: median of control spots 796
# Hof1, Q05080 = target: T5, Hof1, Q05080; details: median of control spots 4086
# Cyk3, Q07533 = target: T6, Cyk3, Q07533; details: median of control spots 1451
# Fus1, P11710 = target: T7, Fus1, P11710; details: median of control spots 1200
# Bzz1-1, P38822 = target: T8, Bzz1-1, P38822; details: median of control spots 4446
# Boi2, P39969 = target: T9, Boi2, P39969; details: median of control spots 1161
# Myo3, P36006 = details: median of control spots 468
# Boi1, P38041 = target: T10, Boi1, P38041; details: median of control spots 1162
# Abp1, P15891 = target: T11, Abp1, P15891; details: median of control spots 935
# Pex13, P80667 = target: T12, Pex13, P80667; details: median of control spots 1341
# GST = details: median of control spots 978
# Lsb3, P43603 = target: T13, Lsb3, P43603; details: median of control spots 406
# Hse1, P38753 = target: T14, Hse1, P38753; details: median of control spots 1727
# Bem1-2, P29366 = details: median of control spots 4347
# Bem1-2, P29366, sequence (P29366 139-227): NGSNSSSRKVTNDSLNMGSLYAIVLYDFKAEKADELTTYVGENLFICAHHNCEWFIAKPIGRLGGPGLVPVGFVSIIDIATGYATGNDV
# Lsb4, P32793 = target: T15, Lsb4, P32793; details: median of control spots 397
# Pin3, Q06449 = target: T16, Pin3, Q06449; details: median of control spots 2171
# Myo5, Q04439 = target: T17, Myo5, Q04439; details: median of control spots 471
# Nbp2, Q12163 = target: T18, Nbp2, Q12163; details: median of control spots 357
# Sla1-3, P32790 = target: T19, Sla1-3, P32790; details: median of control spots 5475
# Bud14, P27637 = target: T20, Bud14, P27637; details: median of control spots 956
# Cdc25, P04821 = target: T21, Cdc25, P04821; details: median of control spots 969
# Rvs167, P39743 = details: median of control spots 2707
# Rvs167, P39743, sequence (P39743 419-482): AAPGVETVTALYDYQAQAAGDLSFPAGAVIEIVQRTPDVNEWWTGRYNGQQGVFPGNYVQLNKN
# Bem1-1, P29366 = details: median of control spots 4282
# Bem1-1, P29366, sequence (P29366 55-141): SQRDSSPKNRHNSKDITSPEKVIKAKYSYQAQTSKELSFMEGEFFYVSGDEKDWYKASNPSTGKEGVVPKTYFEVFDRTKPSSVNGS
# Sho1, P40073 = details: median of control spots 1148
# Sho1, P40073, sequence (P40073 287-367): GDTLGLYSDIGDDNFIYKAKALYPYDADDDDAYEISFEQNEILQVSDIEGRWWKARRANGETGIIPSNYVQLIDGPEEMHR
binder,measurement,setting,value
KNPRRQLQIPRQQPS,SPOT intensity,"Sla1-2, P32790",0
same,SPOT intensity,"Lsb1, P53281",216
same,SPOT intensity,"Bzz1-2, P38822",2
same,SPOT intensity,"Bbc1, P47068",46
same,SPOT intensity,"Hof1, Q05080",2
same,SPOT intensity,"Cyk3, Q07533",0
same,SPOT intensity,"Fus1, P11710",0
same,SPOT intensity,"Bzz1-1, P38822",2
same,SPOT intensity,"Boi2, P39969",0
same,SPOT intensity,"Myo3, P36006",4
same,SPOT intensity,"Boi1, P38041",0
same,SPOT intensity,"Abp1, P15891",92
same,SPOT intensity,"Pex13, P80667",3
same,SPOT intensity,GST,4
same,SPOT intensity,"Lsb3, P43603",3
same,SPOT intensity,"Hse1, P38753",3
same,SPOT intensity,"Bem1-2, P29366",1
same,SPOT intensity,"Lsb4, P32793",8
same,SPOT intensity,"Pin3, Q06449",3
same,SPOT intensity,"Myo5, Q04439",1
same,SPOT intensity,"Nbp2, Q12163",0
same,SPOT intensity,"Sla1-3, P32790",3
same,SPOT intensity,"Bud14, P27637",6
same,SPOT intensity,"Cdc25, P04821",54
same,SPOT intensity,"Rvs167, P39743",2
same,SPOT intensity,"Bem1-1, P29366",2
same,SPOT intensity,"Sho1, P40073",99
LRWRHKFFLPAIAAI,SPOT intensity,"Sla1-2, P32790",0
same,SPOT intensity,"Lsb1, P53281",0
same,SPOT intensity,"Bzz1-2, P38822",0
same,SPOT intensity,"Bbc1, P47068",18
same,SPOT intensity,"Hof1, Q05080",0
same,SPOT intensity,"Cyk3, Q07533",4
same,SPOT intensity,"Fus1, P11710",53
same,SPOT intensity,"Bzz1-1, P38822",1
same,SPOT intensity,"Boi2, P39969",0
same,SPOT intensity,"Myo3, P36006",0
same,SPOT intensity,"Boi1, P38041",1
same,SPOT intensity,"Abp1, P15891",0
same,SPOT intensity,"Pex13, P80667",3
same,SPOT intensity,GST,0
same,SPOT intensity,"Lsb3, P43603",0
same,SPOT intensity,"Hse1, P38753",21
same,SPOT intensity,"Bem1-2, P29366",1
same,SPOT intensity,"Lsb4, P32793",0
same,SPOT intensity,"Pin3, Q06449",4
same,SPOT intensity,"Myo5, Q04439",0
same,SPOT intensity,"Nbp2, Q12163",0
same,SPOT intensity,"Sla1-3, P32790",24
same,SPOT intensity,"Bud14, P27637",10
same,SPOT intensity,"Cdc25, P04821",26
same,SPOT intensity,"Rvs167, P39743",0
same,SPOT intensity,"Bem1-1, P29366",0
same,SPOT intensity,"Sho1, P40073",9
NFKRLLPRDPSEKSS,SPOT intensity,"Sla1-2, P32790",0
same,SPOT intensity,"Lsb1, P53281",0
same,SPOT intensity,"Bzz1-2, P38822",10
same,SPOT intensity,"Bbc1, P47068",51
same,SPOT intensity,"Hof1, Q05080",15
same,SPOT intensity,"Cyk3, Q07533",3
same,SPOT intensity,"Fus1, P11710",145
same,SPOT intensity,"Bzz1-1, P38822",1
same,SPOT intensity,"Boi2, P39969",2
same,SPOT intensity,"Myo3, P36006",6
same,SPOT intensity,"Boi1, P38041",4
same,SPOT intensity,"Abp1, P15891",41
same,SPOT intensity,"Pex13, P80667",7
same,SPOT intensity,GST,0
same,SPOT intensity,"Lsb3, P43603",0
same,SPOT intensity,"Hse1, P38753",72
same,SPOT intensity,"Bem1-2, P29366",11
same,SPOT intensity,"Lsb4, P32793",0
same,SPOT intensity,"Pin3, Q06449",7
same,SPOT intensity,"Myo5, Q04439",0
same,SPOT intensity,"Nbp2, Q12163",12
same,SPOT intensity,"Sla1-3, P32790",156
same,SPOT intensity,"Bud14, P27637",12
same,SPOT intensity,"Cdc25, P04821",50
same,SPOT intensity,"Rvs167, P39743",0
same,SPOT intensity,"Bem1-1, P29366",0
same,SPOT intensity,"Sho1, P40073",51
YVRRRPRVRLEPLLS,SPOT intensity,"Sla1-2, P32790",3
same,SPOT intensity,"Lsb1, P53281",13
same,SPOT intensity,"Bzz1-2, P38822",15
same,SPOT intensity,"Bbc1, P47068",273
same,SPOT intensity,"Hof1, Q05080",20
same,SPOT intensity,"Cyk3, Q07533",4
same,SPOT intensity,"Fus1, P11710",19
same,SPOT intensity,"Bzz1-1, P38822",0
same,SPOT intensity,"Boi2, P39969",17
same,SPOT intensity,"Myo3, P36006",5
same,SPOT intensity,"Boi1, P38041",13
same,SPOT intensity,"Abp1, P15891",101
same,SPOT intensity,"Pex13, P80667",2
same,SPOT intensity,GST,9
same,SPOT intensity,"Lsb3, P43603",0
same,SPOT intensity,"Hse1, P38753",54
same,SPOT intensity,"Bem1-2, P29366",15
same,SPOT intensity,"Lsb4, P32793",3
same,SPOT intensity,"Pin3, Q06449",2
same,SPOT intensity,"Myo5, Q04439",1
same,SPOT intensity,"Nbp2, Q12163",16
same,SPOT intensity,"Sla1-3, P32790",44
same,SPOT intensity,"Bud14, P27637",26
same,SPOT intensity,"Cdc25, P04821",156
same,SPOT intensity,"Rvs167, P39743",0
same,SPOT intensity,"Bem1-1, P29366",0
same,SPOT intensity,"Sho1, P40073",102

# Reference: article PMC2756588
